The values that follow come from patent publication US20220031857A1 (OSSIANIX, published 2022).

For one experiment, the target named is T1, human serum albumin (human, UniProt P02768 25-609).
T1 construct: Negative control protein; also called HSA
The experiment can be described thus: ELISA with Expi293 culture medium used directly, coated HSA, anti-Fc detection. The method, then:
(§1) FIG. 6. […] The VNAR-Fc fusion proteins were transiently expressed using Expi293 expression system. VNAR-Fc constructs contained signal peptide sequence in order to be secreted. Cell growth media was used directly in ELISA. HSA and mouse TfR2 were used as negative controls for unspecific binding. A clone in position 52 represents untransfected cells. Total Fc concentration was measured with capture and detection anti-Fc antibody pair using irrelevant VNAR-Fc at known concentration for standard curve.
(§2) The next day the plates were blocked with […] with 0.1% Tween20 (PBST) for 1 hour at room temperature. Transfected cells were spun down at 2000 rpm for 10 minutes and the collected supernatant was mixed with milk in PBST to a final 2.5% concentration and incubated for 30 minutes. 100 μl of blocked supernatant was transferred into coated plates and incubated for 1 hour. […] The plates were washed and developed with TMB detection solution before stopping the reaction with 1% HCl. Absorbance was measured at 450 nm. A VNAR-Fc at know concentration was used for standard curve to calculate VNAR-Fc expression level.
In general terms: ELISA stands for enzyme-linked immunosorbent assay.

For experiment [1], the target named is T2, recombinant human TfR1 (transferrin receptor 1) (human, UniProt P02786 89-760).
T2 construct: Bought recombinant His-tagged protein; also called hTfR1
T2 sequence (P02786 89-760 limits assumed): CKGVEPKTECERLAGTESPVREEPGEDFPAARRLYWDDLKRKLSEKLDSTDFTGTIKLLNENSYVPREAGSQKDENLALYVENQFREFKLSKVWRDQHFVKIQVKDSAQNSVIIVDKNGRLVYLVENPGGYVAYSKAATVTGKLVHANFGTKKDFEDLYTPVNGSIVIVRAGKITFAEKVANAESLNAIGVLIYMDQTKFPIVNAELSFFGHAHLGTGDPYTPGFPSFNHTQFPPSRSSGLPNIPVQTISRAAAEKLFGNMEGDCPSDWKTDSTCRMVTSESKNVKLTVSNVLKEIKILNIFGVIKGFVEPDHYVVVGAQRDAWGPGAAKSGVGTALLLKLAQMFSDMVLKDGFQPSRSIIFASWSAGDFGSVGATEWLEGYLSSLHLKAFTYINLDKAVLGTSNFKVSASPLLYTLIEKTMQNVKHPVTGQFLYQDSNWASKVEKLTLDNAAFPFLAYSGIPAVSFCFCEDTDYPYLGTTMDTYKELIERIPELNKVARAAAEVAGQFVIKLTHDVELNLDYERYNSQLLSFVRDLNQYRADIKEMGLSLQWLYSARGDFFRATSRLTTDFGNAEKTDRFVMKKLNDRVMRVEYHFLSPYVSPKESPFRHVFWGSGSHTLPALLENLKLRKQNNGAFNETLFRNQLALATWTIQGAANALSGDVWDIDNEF
The experiment can be described thus: ELISA with Expi293 culture medium used directly, coated human TfR1, anti-Fc detection, absorbance at 450 nm. The procedure:
as §1, §2

In a further experiment the target is T3, recombinant mouse TfR2 (mouse, UniProt Q9JKX3 103-798, limits assumed).
T3 construct: Negative control protein
T3 sequence (looked up): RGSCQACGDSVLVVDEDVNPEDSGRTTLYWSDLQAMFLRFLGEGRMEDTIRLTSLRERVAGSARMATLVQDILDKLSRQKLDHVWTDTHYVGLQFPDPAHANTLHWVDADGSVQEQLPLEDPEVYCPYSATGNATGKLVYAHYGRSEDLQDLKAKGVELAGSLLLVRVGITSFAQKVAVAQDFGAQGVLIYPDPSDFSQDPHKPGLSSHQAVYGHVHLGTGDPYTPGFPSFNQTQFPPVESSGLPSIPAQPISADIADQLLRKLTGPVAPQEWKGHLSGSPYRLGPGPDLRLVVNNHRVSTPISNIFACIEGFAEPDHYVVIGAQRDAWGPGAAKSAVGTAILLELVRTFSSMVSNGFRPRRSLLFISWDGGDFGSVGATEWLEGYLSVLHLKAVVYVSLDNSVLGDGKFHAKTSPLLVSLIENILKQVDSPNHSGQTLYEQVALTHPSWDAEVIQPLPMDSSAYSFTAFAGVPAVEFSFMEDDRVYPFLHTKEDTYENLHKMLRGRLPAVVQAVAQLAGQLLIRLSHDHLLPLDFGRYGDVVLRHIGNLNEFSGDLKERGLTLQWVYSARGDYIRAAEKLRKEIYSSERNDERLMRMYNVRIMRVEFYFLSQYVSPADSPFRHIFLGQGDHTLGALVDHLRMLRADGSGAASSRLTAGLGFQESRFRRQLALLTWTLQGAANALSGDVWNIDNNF
As to the kind of experiment: ELISA with Expi293 culture medium used directly, coated mouse TfR2, anti-Fc detection. The procedure: as §1, §2

For experiment [2], the target named is T2, recombinant human TfR1 (transferrin …). The experiment can be described thus: Octet, human TfR1 immobilised; 8D3 as first antibody, which does not bind human TfR1 (grey column); white cell. The method, then: FIGS. 15A and 15B. Epitope binning by cross-competition binding to mouse and human TfR1. VNAR-Fc fusion proteins were tested for cross-blocking in a pairwise manner against mouse (A) and human TfR1 (B) immobilised on biosensors using the Octet platform.
A series of biochemical parameters was examined to further characterize the panel VNAR to TfR1 obtained from in vivo phage display selections. Epitope binning experiments were performed to assess whether the VNARs could compete against each other for binding to either the mouse or human TfR1. […] Because each VNAR binds via a unique CDR3 region with a different structural topography, steric interactions could be important efficient transcytosis.
(Biolayer interferometry detects binding as a change in optical thickness at a sensor tip.)

Experiment [3] has as its target T4, recombinant mouse TfR1 (transferrin receptor 1) (mouse, UniProt Q62351 89-763).
T4 construct: Bought recombinant His-tagged protein; also called mTfR1
As to the kind of experiment: SPR (Biacore), single-cycle kinetics, His-tagged TfR1 captured, VNAR-Fc injected; SPR single cycle kinetics, immobilised mouse TfR1, VNAR-Fc up to 250 nM. The procedure: (§3) Binding kinetics of VNAR-Fcs was determined by surface plasmon resonance (Biacore T200, GE Healthcare). CM5 chips were coated with anti-His antibodies (His Capture Kit, GE Healthcare) as recommended by the manufacturer and human or mouse his-tagged TfR1 (SinoBiological) at 10 ug/mL in HBS-EP+ (GE Healthcare) was captured at flow rate 10 ul/min (contact time 120 s). […] A flow cell without TfR1 captured served as a reference. Sensorgrams were fitted and kinetic constants were determined using Biacore T200 Evaluation software. Chips were regenerated in 10 mM Glycine-HCl, pH 1.5 (contact time: 120 s at flow rate 30 ul/min).
For orientation: SPR reads the build-up and loss of mass on a sensor chip optically.

Experiment [4] concerns the target T2, recombinant human TfR1 (transferrin …). The experiment can be described thus: SPR (Biacore), single-cycle kinetics, His-tagged TfR1 captured, VNAR-Fc injected. The method, then: as §3
For experiment [5] the target is unchanged. As to the kind of experiment: ELISA, plate coated with 1 µg/ml recombinant human TfR1, purified VNAR-Fc titrated, 4-parameter fit. The method, then:
(§4) It was previously reported that affinity might play a crucial role in TfR1 mediated brain penetration. […] Affinity estimation and unspecific binding was initially assessed using ELISA for human and mouse TfR1.
as §2

In experiment [6] the target is T4, recombinant mouse TfR1 (transferrin …). As to the kind of experiment: ELISA, plate coated with 1 µg/ml recombinant mouse TfR1, purified VNAR-Fc titrated, 4-parameter fit. The procedure:
as §4, §2

Experiment [7] shares this target. The experiment can be described thus: ELISA, plate coated with 1 µg/ml recombinant mouse TfR1, purified VNAR-Fc titrated, 4-parameter fit; Clone 2 stands twice in the legend.
Experiment [8] has the same target. The experiment can be described thus: SPR (Biacore), single-cycle kinetics, His-tagged TfR1 captured, VNAR-Fc injected. The method, then:
as §3

“And” between values parts separate entries of the source, which are not always exact repeats. Equal entries are not always repeated.

T1 sequence (P02768 25-609 limits assumed): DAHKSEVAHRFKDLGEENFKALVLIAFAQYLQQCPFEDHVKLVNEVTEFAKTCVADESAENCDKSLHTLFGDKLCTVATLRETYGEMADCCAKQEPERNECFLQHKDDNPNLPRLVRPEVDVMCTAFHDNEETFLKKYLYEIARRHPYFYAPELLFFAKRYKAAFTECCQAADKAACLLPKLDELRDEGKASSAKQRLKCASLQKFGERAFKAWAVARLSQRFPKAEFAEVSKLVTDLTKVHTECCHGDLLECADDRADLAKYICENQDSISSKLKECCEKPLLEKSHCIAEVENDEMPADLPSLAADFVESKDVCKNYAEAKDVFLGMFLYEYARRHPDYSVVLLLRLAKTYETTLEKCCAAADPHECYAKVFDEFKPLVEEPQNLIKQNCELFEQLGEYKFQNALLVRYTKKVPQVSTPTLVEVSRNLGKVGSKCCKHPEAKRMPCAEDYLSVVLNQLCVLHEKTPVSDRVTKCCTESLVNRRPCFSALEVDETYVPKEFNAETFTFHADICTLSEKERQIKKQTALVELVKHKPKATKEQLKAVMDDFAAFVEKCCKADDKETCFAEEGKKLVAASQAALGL
T4 sequence (Q62351 89-763 limits assumed): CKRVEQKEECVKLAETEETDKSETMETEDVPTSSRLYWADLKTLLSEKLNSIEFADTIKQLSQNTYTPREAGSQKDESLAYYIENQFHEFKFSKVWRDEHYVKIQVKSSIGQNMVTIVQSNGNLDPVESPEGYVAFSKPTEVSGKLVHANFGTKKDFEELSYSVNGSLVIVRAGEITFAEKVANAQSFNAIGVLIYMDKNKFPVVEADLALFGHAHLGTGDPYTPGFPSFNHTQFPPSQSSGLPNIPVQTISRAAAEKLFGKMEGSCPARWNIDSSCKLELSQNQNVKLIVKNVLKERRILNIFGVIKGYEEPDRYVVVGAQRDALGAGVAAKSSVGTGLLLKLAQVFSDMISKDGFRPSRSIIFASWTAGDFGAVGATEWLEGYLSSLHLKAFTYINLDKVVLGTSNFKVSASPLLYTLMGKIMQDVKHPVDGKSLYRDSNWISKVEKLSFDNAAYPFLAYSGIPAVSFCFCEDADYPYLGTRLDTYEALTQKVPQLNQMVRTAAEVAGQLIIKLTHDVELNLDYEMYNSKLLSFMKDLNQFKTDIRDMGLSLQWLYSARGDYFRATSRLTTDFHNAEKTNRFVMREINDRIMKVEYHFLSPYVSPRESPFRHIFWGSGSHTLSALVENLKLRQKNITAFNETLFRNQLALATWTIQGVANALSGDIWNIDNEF

B1: Clone 11 VNAR-Fc fusion protein (Fc fusion)
chain: ARVDQTPQTITKETGESLTINCVLRDSNCALPSTHWYRKKSGSTNEESISKGGRYVETVNSGSKSFSLRINDLTVEDSGTYRCKVLNFFTHTCVQVQKYDVYGGGTAVTVNA
notes: Bivalent VNAR-Fc; not shown: glycine/serine linker (GxSx)n extending the hinge; human IgG1 Fc (hinge, CH2, CH3) of pFUSE-hIgG1e3-Fc2; G236 also deleted
Turning to B1, the binding result in the experiment with human serum albumin was “no binding”; in experiment [1] it was “binds”; with recombinant mouse TfR2, “no binding”.

B2: Clone 39 VNAR-Fc fusion protein (Fc fusion)
chain: ARVDQTPQTITKETGESLTINCVLRDSNCALSSTLWYRTKSGSRNEESISKGGRYVETVNSGSKSFSLKINDLTVEDSGTYRCNVQGMVYDGSSFWWCDVYGDSTAVTVNA
notes: as for B1
By Kd is commonly meant the concentration at which binding is half-saturated. The term koff denotes the rate constant with which the complex falls apart. Usually kon stands for the rate constant with which the complex forms. Usually EC50 stands for the concentration needed to bring the measured effect to its halfway point. Consider B2, for which the “Octet signal as second antibody after 8D3” value in experiment [2] was found to be 0.609. Besides, the binding result in the experiment with human serum albumin and with recombinant mouse TfR2 was “no binding” throughout. For the same molecule, the Kd in [3] was 18.3 nM; in experiment [4] it was 7.22 nM. For the same molecule, the koff is 0.00294 s⁻¹ in experiment [3] and 0.000684 s⁻¹ in experiment [4]. In addition, the kon turned out to be 161000 M⁻¹ s⁻¹ in [3] and 94700 M⁻¹ s⁻¹ in [4]. Further, the EC50 in [5] is 257 nM; in experiment [6], 1530 nM.

B3: Clone 2 VNAR-Fc fusion protein (Fc fusion)
chain: ARVDQTPQTITKETGESLTINCVLRDNNCALSTTYWYRKKSGSTNEENISKGGRYVETVNSGSKSFSLKINDLTVEDSGTYRCNVFGVDNGWWCDVYGGGTVVTVNA
notes: as for B1
B3: the “Octet signal as second antibody after 8D3” value in experiment [2] worked out at 0.454. In addition, the binding result with human serum albumin was “no binding”. In addition, the EC50 in experiment [7] is 433 nM and 761 nM. Besides, in [4], the Kd came out at 2.34 nM, the koff is 0.000445 s⁻¹ and the kon came out at 190000 M⁻¹ s⁻¹. For the same molecule, in experiment [8], the Kd was 2.56 nM, the koff came to 0.000501 s⁻¹ and the kon is 195000 M⁻¹ s⁻¹. The binding result with recombinant mouse TfR2 is “no binding”.
